The values below come from patent US6733762.

In test [1] the target is Zot receptor / Zot binding sites on human monocytes/macrophages (CD14+) (human). Kind of test: real-time flow cytometry at 37 C, Zot-FITC 40 ug/ml, cells gated on CD14. Background: Flow cytometry measures light scatter and fluorescence of single cells or particles in a stream.
For test [2] the target is unchanged. Put plainly: 4-color flow cytometry, Zot-FITC 40 ug/ml on PBMC; reference: T or B lymphocytes.
Test [3] has the same target. Kind of test: flow cytometry, MESF calibration, several volunteers; reference: lymphocytes.
The target of test [4] is Zot binding sites on human T lymphocytes (CD3+) (human). Kind of test: real-time flow cytometry at 37 C, Zot-FITC 40 ug/ml, cells gated on CD3.
Test [5] addresses Zot receptor / Zot binding sites on human monocytes/macrophages (CD14+) (human). Put plainly: flow cytometry, MFI converted with Quantum 26 MESF kit, saturation conditions.
The target in test [6] is Zot binding sites on human T lymphocytes (CD3+) (human). The description is as above.
Test [7] concerns the target Zot receptor / Zot binding sites on human monocytes/macrophages (CD14+) (human). Put plainly: flow cytometry, MESF calibration, several volunteers.
The target in test [8] is Zot binding sites on human T lymphocytes (CD3+) (human). The test is described as above.
Test [9] concerns the target Zot receptor / Zot binding sites on human monocytes/macrophages (CD14+) (human).
Test [10] concerns the target Zot binding sites on human T lymphocytes (CD3+) (human).
Test [11] has as its target Zot receptor / Zot binding sites on human monocytes/macrophages (CD14+) (human). This is another data set of the same source.

Values joined by “and” are separate entries in the source; they are usually repeats but may differ in a detail not shown here. Equal entries are not always repeated. Where only a bound is given, the exact number is not on record here.

Consider “Zot-FITC (6xHis-Zot conjugated to fluorescein isothiocyanate, Examples 4-7) (from UniProt P38442 1-399)”, for which the time to reach binding equilibrium in [1] and in [4] was below 2 min each time. Moreover, the fold of binding against T or B lymphocytes in [2] is 5 fold and 8 fold. Also, the fold of binding sites/cell against lymphocytes in test [3] amounted to 10 fold. Further, the Zot-binding sites/cell (binding sites/cell) was found to be 106000 in [5] and 9000 in test [6]. The Zot binding sites/cell (mean of several volunteers) (binding sites/cell) in [7] was 105000; in test [8], 10700.

Regarding “purified Zot (cleaved from the MBP-Zot fusion protein with Factor Xa) (from UniProt P38442 9-399)”, the % decrease of Zot-FITC binding in [9] and in [10] was 33% throughout.

Consider “6xHis-Zot fusion protein (unlabeled) (from UniProt P38442 1-399)”, for which the % suppression of Zot-FITC mean fluorescence intensity in test [11] is 24% and 43%.
